According to US9504755B2, “Multi-arm polymeric alkanoate conjugates” (Nektar Therapeutics, priority 2008, dated 2016):
Where “and” joins values, the source holds several entries; their conditions need not be identical. Equal values may be shown once. Marks after values point to notes of the source that are not given here.

Experiments:
[1] = Pharmacokinetics after IV infusion in Sprague-Dawley rats; format: in vivo, rat
Procedure: The objective of this study was to assess the pharmacokinetics and excretion of docetaxel and 4-ARM-PEG20K-BA-docetaxel after intravenous infusion to rats.
Pharmacokinetics of 4-ARM-PEG20K-BA-docetaxel and docetaxel were evaluated in male rats (15 rats/dose level) dosed with 5, 10, and 15 mg/kg (30, 60, 90 mg/m^2) 4-ARM-PEG20K-BA-docetaxel or 5 mg/kg (30 mg/m^2) docetaxel. 4-ARM-PEG20K-BA-docetaxel and docetaxel were administered via a femoral vein catheter as 30-min intravenous infusions at 4 mL/kg. Blood samples (n=15 timepoints with n=5 samples/dose level/timepoint) were obtained by jugular venipuncture between pre-dose and 144 hours post-dose.

H460 tumors = experiment: Anti-tumor activity in H460 non-small cell lung mouse xenograft model; format: in vivo
Procedure: (§1) H460, LS174T and LoVo tumors were established in female athymic nude mice. Groups of 10 mice received a total of three single doses of 4-ARM-PEG20K-BA-DOC or docetaxel administered every 7 days (q7d×3) at several doses up to a maximum tolerated dose (MTD). Control groups received no treatment after tumor implant. Animals were weighed daily for the first five days and twice weekly thereafter. Tumor volumes were measured twice weekly after the first drug injection.
(§2) Anti-tumor activity was measured as changes in tumor volume, time to reach endpoint, and complete or partial tumor regression.
(§3) Treatment outcome was evaluated by Tumor Growth Delay (TGD), which is defined as the increase in median time to endpoint in a treatment group compared to the control group. Here it is expressed as % TGD, as a percentage to the median time to endpoint of the control group.
(§4) A tumor whose volume was reduced to 50% or less for three consecutive measurements compared to its volume on Day 1 was considered to be in partial regression. Complete regression was defined as volume […] 13.5 mm^3 for three consecutive measurements.
(§5) Acceptable toxicity was defined as a group mean body weight (BW) loss of less than 20% during the study and not more than one treatment-related death among ten treated animals.

[2] = Population pharmacokinetic modeling of terminal disposition rate constant, dogs; format: in vivo; details: dog
Description: To further evaluate the sustained plasma docetaxel terminal half-life, a population pharmacokinetic approach was employed.
While determining the pharmacokinetics of docetaxel after administration of docetaxel or 4-ARM-PEG20K-BA-docetaxel, it was observed that reliable values for the terminal disposition rate constant λz could not be obtained for the majority of animals secondary to fluctuation of plasma docetaxel concentrations between adjacent sampling times and/or the occurrence of incomplete concentration-time profiles due to concentrations being near or at the lower limit of quantification (1 ng/mL). In addition, in Example 14, rats were sampled in groups of 15 using alternating, overlapping sparse sampling schemes across groups to encompass the total duration of sampling. All of these factors contributed to the occurrence of sparse data within a given animal's terminal concentration-time profile.
To further investigate and compare docetaxel terminal disposition patterns between docetaxel and 4-ARM-PEG20K-BA-docetaxel, population pharmacokinetic methods were applied to data from rats (Example 14) and dogs (Example 15 and in one additional study). This allowed estimation of population λz values and corresponding half-life values for each treatment group in the presence of incomplete data within individual animals. Specifically, data from all animals within a treatment group and all treatment groups were fit with a nonlinear mixed effect pharmacokinetic model using the program Monolix. Plasma docetaxel concentrations following docetaxel or 4-ARM-PEG20K-BA-docetaxel administration, and plasma 4-ARM-PEG20K-BA-docetaxel concentrations following 4-ARM-PEG20K-BA-docetaxel administration were fit with a model specifying zero-order input of the dose over a defined infusion period and biexponential disposition (Monolix PK Model 26). Docetaxel concentration-time data after 4-ARM-PEG20K-BA-docetaxel were fit with a model having first order input, to reflect metabolism of 4-ARM-PEG20K-BA-docetaxel to the active docetaxel metabolite, and biexponential disposition (Monolix PK Model 31). The parameter of interest for this investigation was the population terminal disposition rate constant, λz to supplement the results described above.
Dogs in the additional study received 7 mg/kg doses of 4-ARM-PEG20K-BA-docetaxel on Days 1 and 22 with serial blood sampling after each dose for determination of plasma 4-ARM-PEG20K-BA-docetaxel and docetaxel concentrations.

LoVo tumors = experiment: Anti-tumor activity in LoVo colorectal mouse xenograft model; format: in vivo
Procedure: as §1, §2, §3, §4, §5

[3] = male rats, average over 5, 10, 15 mg/kg
[4] = male rats, single IV dose 5 mg/kg
[5] = male rats, single IV dose 10 mg/kg
[6] = male rats, single IV dose 15 mg/kg
[7] = 18.7 mg/kg (56.1 mg/m^2), q7d×3
[8] = 25 mg/kg (75 mg/m^2), q7d×3 (MTD of docetaxel)
[9] = 33.3 mg/kg (99.9 mg/m^2), q7d×3
[10] = additional study, conjugate 7 mg/kg on Days 1 and 22
[11] = docetaxel 0.75 mg/kg or conjugate 0.72, 2, 4 mg/kg
[12] = 16.9 mg/kg (50.7 mg/m^2), q7d×3
[13] = 22.5 mg/kg (67.5 mg/m^2), q7d×3
[14] = 40 mg/kg (120 mg/m^2), q7d×3 (exceeded MTD)

## 4-ARM-PEG20K-Butanoate-Linked Docetaxel Conjugate [4-ARM-PEG20K-BA-DOC]
[1]; [3]
  CL, analyte conjugate, average (±SD): 0.33 mL/min/kg
  Vss, analyte conjugate, average (±SD): 0.61 ± 0.17 L/kg
[1]; [4]
  AUCinf, analyte conjugate: 250.374 µg·h/mL
  AUClast, analyte conjugate: 226.203 µg·h/mL
  AUClast, analyte docetaxel: 1.711 µg·h/mL
  CL, analyte conjugate: 0.33 mL/min/kg
  Cmax, analyte conjugate: 40079 ng/mL
  Cmax, analyte docetaxel: 122 ng/mL
  T1/2, analyte conjugate: 73 h
  Tmax, analyte conjugate: 0.5 h
  Tmax, analyte docetaxel: 0.5 h
  Vss, analyte conjugate: 0.8 L/kg
[1]; [5]
  AUCinf, analyte conjugate: 437.912 µg·h/mL
  AUClast, analyte conjugate: 419.132 µg·h/mL
  AUClast, analyte docetaxel: 3.003 µg·h/mL
  CL, analyte conjugate: 0.38 mL/min/kg
  Cmax, analyte conjugate: 70795 ng/mL
  Cmax, analyte docetaxel: 176 ng/mL
  T1/2, analyte conjugate: 59 h
  Tmax, analyte conjugate: 0.5 h
  Tmax, analyte docetaxel: 2.0 h
  Vss, analyte conjugate: 0.55 L/kg
[1]; [6]
  AUCinf, analyte conjugate: 895.159 µg·h/mL
  AUClast, analyte conjugate: 847.993 µg·h/mL
  AUClast, analyte docetaxel: 3.743 µg·h/mL
  CL, analyte conjugate: 0.28 mL/min/kg
  Cmax, analyte conjugate: 138296 ng/mL
  Cmax, analyte docetaxel: 273 ng/mL
  T1/2, analyte conjugate: 63 h
  Tmax, analyte conjugate: 0.5 h
  Tmax, analyte docetaxel: 1.0 h
  Vss, analyte conjugate: 0.47 L/kg
[1]; rats, equivalent doses (5 mg/kg)
  plasma docetaxel AUC compared with docetaxel: similar
H460 tumors; 14 mg/kg (42 mg/m^2), q7d×3
  BW Loss (%): 0/0%
  No. Surviving/No. Treated Mice: 10/10
  TGD (%): −1%
H460 tumors; [7]
  BW Loss (%): 6.2%
  Day of BW Nadir: 22
  No. Surviving/No. Treated Mice: 10/10
  TGD (%): 56* %
H460 tumors; 19 mg/kg (58% MTD), q7d×3
  Tumor growth delay (%): 56%
H460 tumors; 25 mg/kg (75 mg/m^2), q7d×3
  Day of BW Nadir: 29
  No. Surviving/No. Treated Mice: 10/10
H460 tumors; [8]
  BW Loss (%): 10.4%
  TGD (%): 72** %
H460 tumors; 33 mg/kg (MTD)
  Decrease in body weight: 14.2%
H460 tumors; 33 mg/kg (MTD), q7d×3
  Tumor growth delay (%): 122%
H460 tumors; [9]
  BW Loss (%): 14.2%
  Day of BW Nadir: 22
  No. Surviving/No. Treated Mice: 10/10
  TGD (%): 122** %
H460 tumors; 4-ARM-PEG20K-BA-DOC at 19 mg/kg (58% of its MTD), docetaxel doses less than 25 mg/kg
  antitumor activity below MTD: retained significant antitumor activity
H460 tumors; each at MTD
  % TGD fold greater than for docetaxel: 2.5 fold
[2]
  plasma docetaxel half-life, fold longer than after docetaxel: about 8 fold
[2]; [10]
  Mean (SE) λz, plasma conjugate: 0.0141 (0.00041) h^−1
  Mean (SE) λz, plasma docetaxel: 0.00627 (0.00086) hr^−1
  t½λz, plasma docetaxel: 110 h
[2]; [11]
  Mean (SE) λz, plasma docetaxel: 0.00349 (0.0021) hr^−1
  t½λz, plasma docetaxel: 199 h
LoVo tumors; [12]
  BW Loss (%): 7.0%
  Day of BW Nadir: 21
  No. Surviving/No. Treated Mice: 10/10
  PR (partial regressions): 0
  TGD (%): 64** %
LoVo tumors; [13]
  BW Loss (%): 11.0%
  Day of BW Nadir: 24
  No. Surviving/No. Treated Mice: 10/10
  PR (partial regressions): 0
  TGD (%): 50* %
LoVo tumors; 30 mg/kg (90 mg/m^2), q7d×3
  BW Loss (%): 16.2%
  Day of BW Nadir: 24
  No. Surviving/No. Treated Mice: 10/10
  PR (partial regressions): 0
LoVo tumors; 30 mg/kg (90 mg/m^2), q7d×3 (MTD for both agents)
  TGD (%): 128%
LoVo tumors; 40 mg/kg (120 mg/m^2), q7d×3
  Day of BW Nadir: 24
  No. Surviving/No. Treated Mice: 10/10
LoVo tumors; [14]
  BW Loss (%): 22.6%
  TGD (%): 148% and 148 ^1%
